{"source": "paper PMC4989518", "about": "“In situ expression of (R)-carbonyl reductase rebalancing an asymmetric pathway improves stereoconversion efficiency of racemic mixture to (S)-phenyl-1,2-ethanediol in Candida parapsilosis CCTCC M203011” (Microbial Cell Factories, 2016)", "test_system": "OC[C@H](O)c1ccccc1", "assay": "purified protein", "settings": "oxidation to 2-HAP, NAD+, 100 mM acetate pH 6.5, 35 °C, enzyme from C. parapsilosis/pCP-rcr"}
{"substance": "recombinant RCR (C. parapsilosis/pCP-rcr) (Lodderomyces parapsilosis)", "values": [{"measurement": "Km", "value": "6.31 ± 0.09", "unit": "mM"}, {"measurement": "kcat", "value": "3.19 ± 0.22", "unit": "s⁻¹"}, {"measurement": "kcat/Km", "value": 510, "unit": "M⁻¹ s⁻¹"}]}
